B1: LINE1-mini (parent)
chain: GGCAGAGCUCAACACAGCGUGGCAAAGUGGCUGUGGCUAGACUGCC

Variants of: B1
Experiment: self-cleavage, relative activity (ratio to wild type); higher = more cleavage; in vitro, sequencing; the parent is a self-cleaving ribozyme

Variant | self-cleavage
GGCAGAGCUCAAGACAGCGUGGCAAAGUGGCUGUGACUAGACUGCC | 0.29
GGCAGAGCUCAAGACAGCGUGGCAAAGUGGCUGUGUCUAGACUGCC | 0.1
GGCAGAGCUCAAGACAGCGUGGCAAAGUGGCUGUGCCUAGACUGCC | 0.08
GGCAGAGCUCAAGACAGCGUGGAAAAGUGGCUGUGGCUAGACUGCC | 0.29
GGCAGAGCUCAAGACAGCGUGGUAAAGUGGCUGUGGCUAGACUGCC | 0.46
GGCAGAGCUCAAGACAGCGUGGGAAAGUGGCUGUGGCUAGACUGCC | 0.13
GGCAGAGCUCAAUACAGCGUGGCAAUGUGGCUGUGGCUAGACUGCC | 0.15
GGCAGAGCUCAAUACAGCGUGGCAAGGUGGCUGUGGCUAGACUGCC | 0.14
GGCAGAGCUCAAUACAGCGUGGCAACGUGGCUGUGGCUAGACUGCC | 0.24
GGCAGAGCUCAAGACAGCGUGGCAAAGUGGCUGUGGCUAGACUCCC | 0.05
GGCAGAGCUCAAGACAGCGUGGCAAAGUGGCUGUGGCUAGACUUCC | 0.06
GGCAGAGCUCAAGACAGCGUGGCAAAGUGGCUGUGGCUAGACUACC | 0.12
GGCAGAGCUCAAGACAGCGUGGCAAAGUGGUUGUGGCUAGACUGCC | 0.13
GGCAGAGCUCAAGACAGCGUGGCAAAGUGGGUGUGGCUAGACUGCC | 0.05
GGCAGAGCUCAAGACAGCGUGGCAAAGUGGAUGUGGCUAGACUGCC | 0.16
GGCAGAGCUCAAGACAGCGUGGCAGAGUGGCUGUGGCUAGACUGCC | 0.11
GGCAGAGCUCAAGACAGCGUGGCAUAGUGGCUGUGGCUAGACUGCC | 0.44
GGCAGAGCUCAAUCCAGCGUGGCAAAGUGGCUGUGGCUAGACUGCC | 0.09
GGCAGAGCUCAAUGCAGCGUGGCAAAGUGGCUGUGGCUAGACUGCC | 0.17

Variant | self-cleavage
GGCAGAGCUCAAUUCAGCGUGGCAAAGUGGCUGUGGCUAGACUGCC | 0.1
GGCAGAGCUCAAUACUGCGUGGCAAAGUGGCUGUGGCUAGACUGCC | 0.13
GGCAGAGCUCAAUACGGCGUGGCAAAGUGGCUGUGGCUAGACUGCC | 0.09
GGCAGAGCUCAAUACCGCGUGGCAAAGUGGCUGUGGCUAGACUGCC | 0.1
GGCAGAGCUCAAUACAGCGUGGCUAAGUGGCUGUGGCUAGACUGCC | 0.16
GGCAGAGCUCAAUACAGCGUGGCCAAGUGGCUGUGGCUAGACUGCC | 0.15
GGCAGAGCUCAAUACAGCGUGGCGAAGUGGCUGUGGCUAGACUGCC | 0.13
GGCAGAGCUCAAGACAGCGUGUCAAAGUGGCUGUGGCUAGACUGCC | 0.18
GGCAGAGCUCAAGACAGCGUGACAAAGUGGCUGUGGCUAGACUGCC | 0.21
GGCAGAGCUCAAGACAGCGUGCCAAAGUGGCUGUGGCUAGACUGCC | 0.05
GGCAGAGCUCAAGACAGCGUGGCAAAGUGGCUGUGGCGAGACUGCC | 0.01
GGCAGAGCUCAAGACAGCGUGGCAAAGUGGCUGUGGCAAGACUGCC | 0.05
GGCAGAGCUCAAGACAGCGUGGCAAAGUGGCUGUGGCCAGACUGCC | 0.41
GGCAGAGCUCAAGACAGCGUGGCAAAGUGGCAGUGGCUAGACUGCC | 0.09
GGCAGAGCUCAAGACAGCGUGGCAAAGUGGCCGUGGCUAGACUGCC | 0.07
GGCAGAGCUCAAGACAGCGUGGCAAAGUGGCGGUGGCUAGACUGCC | 0.05
GGCAGAGCUCAAGACAGCGGGGCAAAGUGGCUGUGGCUAGACUGCC | 0.13
GGCAGAGCUCAAGACAGCGAGGCAAAGUGGCUGUGGCUAGACUGCC | 0.13
GGCAGAGCUCAAGACAGCGCGGCAAAGUGGCUGUGGCUAGACUGCC | 0.1

Variant | self-cleavage
GGCAGAGCUCAAGACAGCGUGGCAAAGUGGCUGUGGCUAGAUUGCC | 0.12
GGCAGAGCUCAAGACAGCGUGGCAAAGUGGCUGUGGCUAGAGUGCC | 0.09
GGCAGAGCUCAAGACAGCGUGGCAAAGUGGCUGUGGCUAGAAUGCC | 0.07
GGCAGAGCUCAAGACAGCGUGGCAAAGUGGCUGUGGUUAGACUGCC | 0.37
GGCAGAGCUCAAGACAGCGUGGCAAAGUGGCUGUGGGUAGACUGCC | 0.04
GGCAGAGCUCAAGACAGCGUGGCAAAGUGGCUGUGGAUAGACUGCC | 0.13
GGCAGAGCUCAAGACAGCGUGGCAAGGUGGCUGUGGCUAGACUGCC | 0.08
GGCAGAGCUCAAGACAGCGUGGCAAUGUGGCUGUGGCUAGACUGCC | 0.19
GGCAGAGCUCAAGACAGCGUGGCAACGUGGCUGUGGCUAGACUGCC | 0.27
GGCAGAGCUCAAUACAGCGUGGCAAAGUGGCUGUGGCUGGACUGCC | 0.11
GGCAGAGCUCAAUACAGCGUGGCAAAGUGGCUGUGGCUUGACUGCC | 0.08
GGCAGAGCUCAAUACAGCGUGGCAAAGUGGCUGUGGCUCGACUGCC | 0.13
GGCAGAGCUCAAGACAGCGUGGCAAAGUGACUGUGGCUAGACUGCC | 0.15
GGCAGAGCUCAAGACAGCGUGGCAAAGUGUCUGUGGCUAGACUGCC | 0.19
GGCAGAGCUCAAGACAGCGUGGCAAAGUGCCUGUGGCUAGACUGCC | 0.12
GGCAGAGCUCAAGACAGCGUGGCAAAGUGGCUGUGGCUUGACUGCC | 0.05
GGCAGAGCUCAAGACAGCGUGGCAAAGUGGCUGUGGCUCGACUGCC | 0.16
GGCAGAGCUCAAGACAGCGUGGCAAAGUGGCUGUGGCUGGACUGCC | 0.09

Source: the RNAGym collection of RNA variant scans (doi:10.7554/elife.90254)
